Patent publication US20090004680A1

Molecular target: Mouse synaptosomes (BoNT/A acceptor on a mouse synaptosome preparation)

In the case of “Inactivated BoNT/A (toxoid) (from UniProt P0DPI0 2-1296)”, the maximum percent inhibition is reported as 98%.
